In article PMC5806882, “Structural and biochemical characterization of the biuret hydrolase (BiuH) from the cyanuric acid catabolism pathway of Rhizobium leguminasorum bv. viciae 3841” (PLoS ONE, 2018):

Experiments:
NC(=O)NC(N)=O [1] = experiment: GDH-coupled steady-state kinetics (KM); format: biochemical, Rhizobium johnstonii; conditions: active site
NC(=O)NC(N)=O [2] = system: T1, NC(=O)NC(N)=O; experiment: GDH-coupled steady-state kinetics (KM); format: biochemical, Rhizobium johnstonii; conditions: active site
T1 construct: wild type, N-terminal 6xHis-tag

biuret hydrolase (BiuH) (Rhizobium johnstonii 3841; K142R), sequence (chain, as listed by the source K142R): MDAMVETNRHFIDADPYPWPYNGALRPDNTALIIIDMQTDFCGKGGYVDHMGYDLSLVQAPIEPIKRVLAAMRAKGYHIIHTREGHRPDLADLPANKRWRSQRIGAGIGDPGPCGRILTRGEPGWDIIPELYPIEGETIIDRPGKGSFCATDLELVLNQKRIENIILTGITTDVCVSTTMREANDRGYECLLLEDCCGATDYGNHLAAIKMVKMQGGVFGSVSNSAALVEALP
biuret hydrolase (BiuH) (Rhizobium johnstonii 3841), sequence (chain, as listed by the source): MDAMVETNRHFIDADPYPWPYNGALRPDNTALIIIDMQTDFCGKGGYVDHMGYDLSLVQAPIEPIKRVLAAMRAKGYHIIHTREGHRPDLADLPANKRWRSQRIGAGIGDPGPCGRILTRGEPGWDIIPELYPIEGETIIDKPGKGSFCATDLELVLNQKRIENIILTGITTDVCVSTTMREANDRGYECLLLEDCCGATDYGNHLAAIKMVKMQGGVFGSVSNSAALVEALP
biuret hydrolase (BiuH) (Rhizobium johnstonii 3841; F41W), sequence (chain, as listed by the source F41W): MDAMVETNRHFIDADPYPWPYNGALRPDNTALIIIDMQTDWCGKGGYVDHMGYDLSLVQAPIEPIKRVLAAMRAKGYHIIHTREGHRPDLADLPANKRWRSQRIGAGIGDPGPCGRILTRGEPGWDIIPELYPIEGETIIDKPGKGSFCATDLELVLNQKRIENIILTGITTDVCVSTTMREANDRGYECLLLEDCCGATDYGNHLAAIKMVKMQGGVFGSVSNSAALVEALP
biuret hydrolase (BiuH) (Rhizobium johnstonii 3841; Q215N), sequence (chain, as listed by the source Q215N): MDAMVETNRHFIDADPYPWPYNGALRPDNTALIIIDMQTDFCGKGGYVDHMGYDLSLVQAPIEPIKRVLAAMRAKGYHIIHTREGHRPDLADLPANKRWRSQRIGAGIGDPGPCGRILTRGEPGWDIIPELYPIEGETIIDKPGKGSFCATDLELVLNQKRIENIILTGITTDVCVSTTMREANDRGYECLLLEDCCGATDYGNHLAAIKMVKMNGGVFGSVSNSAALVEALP

Row | Substance | Km (NC(=O)NC(N)=O [1]) | kcat (NC(=O)NC(N)=O [1]) | kcat/Km (NC(=O)NC(N)=O [1]) | Km (NC(=O)NC(N)=O [2]) | kcat (NC(=O)NC(N)=O [2]) | kcat/Km (NC(=O)NC(N)=O [2])
1 | biuret hydrolase (BiuH) (Rhizobium johnstonii 3841; Q215N) | 48 ± 2 µM | 0.19 ± 0.002 s⁻¹ | 3960 M⁻¹ s⁻¹ | – | – | –
2 | biuret hydrolase (BiuH) (Rhizobium johnstonii 3841; F41W) | 127 ± 8 µM | 0.26 ± 0.003 s⁻¹ | 2050 M⁻¹ s⁻¹ | – | – | –
3 | biuret hydrolase (BiuH) (Rhizobium johnstonii 3841; K142R) | 139 ± 8 µM | 0.07 ± 0.001 s⁻¹ | 504 M⁻¹ s⁻¹ | – | – | –
4 | biuret hydrolase (BiuH) (Rhizobium johnstonii 3841) | – | – | – | 79 ± 7 µM | 11.9 ± 0.3 s⁻¹ | 150000 M⁻¹ s⁻¹
